Experimental findings from publication PMC2719692 are described below.

The data set deals with T1, eEF1α (GST fusion) (rat) (UniProt P62630).
T1 sequence: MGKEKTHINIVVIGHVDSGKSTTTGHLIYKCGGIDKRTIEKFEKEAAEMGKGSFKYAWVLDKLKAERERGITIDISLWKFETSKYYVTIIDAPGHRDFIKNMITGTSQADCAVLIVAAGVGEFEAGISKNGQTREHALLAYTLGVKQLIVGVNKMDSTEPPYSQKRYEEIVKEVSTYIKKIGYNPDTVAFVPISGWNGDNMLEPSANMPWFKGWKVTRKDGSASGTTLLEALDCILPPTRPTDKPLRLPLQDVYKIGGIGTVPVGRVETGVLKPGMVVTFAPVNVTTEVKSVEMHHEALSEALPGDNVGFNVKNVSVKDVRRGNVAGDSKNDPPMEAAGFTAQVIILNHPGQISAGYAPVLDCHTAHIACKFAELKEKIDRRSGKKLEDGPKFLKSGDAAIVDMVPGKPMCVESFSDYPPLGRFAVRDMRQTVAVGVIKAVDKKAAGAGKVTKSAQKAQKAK
The data set can be described thus: EMSA. The following applies: EMSA: 40 mM NaCl, 5 mM MgCl2, 30 mM Tris-HCl pH 7.6, 2 mM DTT, protease inhibitors, 22 °C 15 min, then RNase T1 (described for CHO extract); 12 fmol RNA in ….

Regarding “GGAGUGACGAACAGUGCUGCUGCCCUCAGGUGUAAAUAAUUUCCGGACCAACUCAGAGUCUUGCCGUACACCUCCACCCAGUUUACUAAACCCCGUUUUCUACCGAGCAUGUG [MT-111 (MT-1 3′UTR nt 1-111)]”, the binding entry is listed as “binds”.
